Target: acetylcholine receptor (Homo sapiens, UniProt P02708)
Experiment: SPR binding affinity (RU) of optimized 5mer/6mer/7mer peptides, Examples 6-7
Settings: 6mer-1 Top sequence; SPR; peptides tested at 10 μM
Procedure, shortened: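 Synthetic 5mer and 6mer peptides, built from frequent or infrequent amino-acid combinations, were tested at 10 μM for binding to the human acetylcholine receptor by surface plasmon resonance. Binding is reported in response units (RU).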

Chain of acetylcholine receptor (P02708 21-457): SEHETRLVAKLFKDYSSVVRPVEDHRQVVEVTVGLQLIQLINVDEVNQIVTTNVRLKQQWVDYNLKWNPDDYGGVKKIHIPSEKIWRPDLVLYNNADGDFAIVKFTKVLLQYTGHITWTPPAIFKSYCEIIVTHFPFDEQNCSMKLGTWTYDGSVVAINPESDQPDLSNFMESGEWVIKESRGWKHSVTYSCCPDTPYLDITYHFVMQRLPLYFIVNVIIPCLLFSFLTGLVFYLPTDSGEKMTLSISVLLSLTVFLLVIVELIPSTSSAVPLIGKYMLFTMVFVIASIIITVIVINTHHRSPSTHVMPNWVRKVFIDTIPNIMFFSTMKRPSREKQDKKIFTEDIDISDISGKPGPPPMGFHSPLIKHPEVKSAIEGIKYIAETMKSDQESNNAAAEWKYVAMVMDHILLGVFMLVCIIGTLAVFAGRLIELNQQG

Substance	Binding affinity [Ru]
6mer-1-203 (RRQITR)	142
6mer-1-269 (RKRRQR)	142
6mer-1-322 (KRGVQR)	146
6mer-1-324 (RRLQRR)	128
6mer-1-275 (RKRVLK)	123
6mer-1-297 (RRGFSK)	139
6mer-1-285 (KRWVQR)	122
6mer-1-299 (KRWLSK)	139
6mer-1-326 (RKWIYK)	136
6mer-1-223 (KKRRRK)	133
6mer-1-206 (RRLQTR)	121
6mer-1-240 (RRSRRR)	148
6mer-1-278 (KRQQTR)	142
6mer-1-280 (RKLQCK)	149
6mer-1-372 (RKLRSK)	145
6mer-1-346 (KKRIYR)	123

Same assay, conditions: 6mer-2 Top sequence; SPR; peptides tested at 10 μM

Substance	Binding affinity [Ru]
6mer-2-74 (RWIYKR)	136
6mer-2-199 (RGQYKR)	137
6mer-2-164 (KRQRRK)	135
6mer-2-113 (KRYSRK)	145
6mer-2-39 (RWRYRK)	137
6mer-2-169 (KRQSRR)	123
6mer-2-181 (RWQQKK)	139
6mer-2-128 (KSYYRR)	147

Same assay, conditions: SPR, Resonance Units; 5mer Bottom sequence (bottom combinations); peptides tested at 10 μM

Substance	Binding affinity [Ru]
5mer-931 (RITER)	11
5mer-1095 (KAEKR)	27
5mer-719 (KISER)	21
5mer-777 (RYNWK)	28
5mer-723 (RASPR)	22
5mer-998 (RCTAK)	18
5mer-651 (RFTVR)	11
5mer-951 (RYMGR)	18
5mer-1011 (KTDMK)	25
5mer-994 (KAWVR)	26
5mer-647 (KHTVK)	29
5mer-1010 (KCDNK)	16
5mer-934 (KMMMR)	17
5mer-805 (RPTNR)	27
5mer-1047 (KAHMR)	23
5mer-742 (RNSDK)	11
5mer-699 (KKNER)	12
5mer-907 (KDSVR)	18
5mer-1039 (KKDVK)	32
5mer-1023 (RYCKK)	13
5mer-608 (RDSER)	20

Same assay, conditions: SPR, Resonance Units; peptides tested at 10 μM; 6mer-1 Bottom sequence

Substance	Binding affinity [Ru]
6mer-1-1024 (RKTEIR)	36
6mer-1-1039 (KRADIK)	40
6mer-1-1186 (KKNNAK)	37
6mer-1-1125 (KKPTDR)	26
6mer-1-1057 (KRKPVR)	43

Same assay, conditions: SPR, Resonance Units; peptides tested at 10 μM; 6mer-1 Bottom sequence (Table 11)

Substance	Binding affinity [Ru]
6mer-1-658 (RKKEMK)	20
6mer-1-796 (RRHAFK)	28
6mer-1-649 (RRIAGK)	32
6mer-1-687 (RREWIK)	23

Same assay, conditions: SPR, Resonance Units; peptides tested at 10 μM; 6mer-2 Bottom sequence

Substance	Binding affinity [Ru]
6mer-2-763 (KMKERR)	19
6mer-2-823 (REDWRK)	25
6mer-2-963 (KAKHRR)	37
6mer-2-758 (RFSFKK)	18
6mer-2-686 (KTWEKK)	21
6mer-2-722 (RNEHRR)	21
6mer-2-953 (KESVKK)	25
6mer-2-825 (KIHARK)	11
6mer-2-857 (KHTEKK)	20
6mer-2-772 (RHPAKK)	15
6mer-2-699 (KNAGKR)	23
6mer-2-788 (KKEKKK)	30
6mer-2-848 (RMTERK)	29
6mer-2-896 (RTCARR)	30

Same assay, conditions: SPR, Resonance Units; peptides tested at 10 μM; 6mer-2 Top sequence

Substance	Binding affinity [Ru]
6mer-2-405 (KGYRKK)	137
6mer-2-499 (RLFTKR)	145
6mer-2-487 (KSYTKR)	121
6mer-2-465 (KGVSKR)	122
6mer-2-543 (RRQYRR)	144
6mer-2-429 (RWRQRK)	123

Same assay, conditions: SPR, Resonance Units; peptides tested at 10 μM; 6mer-2 Top sequence (Table 12)

Substance	Binding affinity [Ru]
6mer-2-249 (RGLRKR)	136
6mer-2-334 (KVILRR)	146
6mer-2-320 (RQYRRK)	148
6mer-2-394 (KLVLKR)	141
6mer-2-364 (KVFTKK)	154
6mer-2-392 (RQILKR)	149
6mer-2-361 (RSFQRR)	153
6mer-2-308 (KGISKR)	148
6mer-2-289 (RLLQKK)	146
6mer-2-306 (RQFQKR)	141

Same assay, conditions: SPR, peptides at 10 μM; 6mer-2 Bottom sequence

Substance	Binding affinity [Ru]
6mer-2-1089 (RKTDRR)	43
6mer-2-1198 (RMSHRR)	27
6mer-2-1136 (KMKKKR)	36
6mer-2-1134 (KYENRK)	30
6mer-2-1025 (RCSHRR)	39
6mer-2-1106 (KDKVKR)	28
6mer-2-1062 (KYNIRK)	35

Same assay, conditions: SPR, peptides tested at 10 μM; 5mer Top sequence

Substance	Binding affinity [Ru]
5mer-500 (KSLQK)	63
5mer-113 (KRLRK)	79
5mer-395 (RWVCK)	50
5mer-77 (KWRQK)	74
5mer-201 (RWIYR)	62
5mer-344 (KQFQR)	52
5mer-100 (KVIRK)	80
5mer-85 (KGVLK)	74
5mer-379 (KSRLR)	79
5mer-394 (KRRRK)	66
5mer-57 (KQLYR)	73
5mer-375 (KQLCR)	84
5mer-331 (RGIQR)	79
5mer-1 (RVQCK)	54
5mer-439 (KRVTR)	65
5mer-104 (RVVLK)	74
5mer-488 (KVRSR)	58
5mer-70 (RLLQR)	69
5mer-380 (KRYLK)	82
5mer-447 (KGYYK)	76
5mer-39 (KQVSR)	67
5mer-140 (KWRLR)	69
5mer-351 (KSFSK)	75
5mer-42 (RQRLR)	83
5mer-195 (KVVSR)	82
5mer-387 (RRILR)	52

Same assay, conditions: SPR, peptides tested at 10 μM; 5mer Top sequence (top combinations)

Substance	Binding affinity [Ru]
5mer-593 (KQYLK)	77
5mer-272 (KGYQR)	83
5mer-262 (KSRCR)	59
5mer-588 (RSFTR)	60
5mer-555 (KVQCK)	71

Same assay, conditions: SPR, peptides tested at 10 μM; 6mer-1 Bottom sequence (Table 11)

Substance	Binding affinity [Ru]
6mer-1-866 (KRCHFR)	26
6mer-1-867 (KRIPMR)	25
6mer-1-963 (RREEDK)	29
6mer-1-930 (KKESNK)	43
6mer-1-815 (RRFEMR)	23
6mer-1-882 (KKPAMR)	25
6mer-1-904 (KKDTKR)	31

Same assay, conditions: SPR, peptides tested at 10 μM; 6mer-1 Top sequence

Substance	Binding affinity [Ru]
6mer-1-449 (KRGRCK)	135
6mer-1-543 (RRSVCK)	145
6mer-1-472 (KRQRCK)	142
6mer-1-508 (RRQFSK)	135
6mer-1-597 (KRGFYK)	148
6mer-1-556 (KKGFTK)	145
6mer-1-475 (RKLQTK)	148

Same assay, conditions: SPR, peptides tested at 10 μM; 6mer-1 Top sequence (top combinations)

Substance	Binding affinity [Ru]
6mer-1-25 (KKLIRR)	135
6mer-1-177 (KRGYRR)	121
6mer-1-119 (KRLQTR)	133
6mer-1-161 (KRRYCK)	139
6mer-1-58 (RKSVTR)	126
6mer-1-60 (RKSIQK)	139
6mer-1-124 (KRVQQK)	137

Same assay, conditions: SPR; XRRGVRR-7mer and RRGVRRX-7mer

Substance	Binding affinity, values relative to the RRGVRR sequence
3680 (RRGVRRE) [compound 3680]	33

Same assay, conditions: SPR; XRRQRR-6mer and RRQRRX-6mer

Substance	Binding affinity, relative value to the RRQRR sequence
3634 (RRQRRN) [compound 3634]	109

Same assay, conditions: SPR; peptides tested at 10 μM; 5mer Bottom sequence

Substance	Binding affinity [Ru]
5mer-889 (KTPGR)	25
5mer-1129 (KFDAR)	14
5mer-886 (RMMFR)	21
5mer-876 (KETAR)	16
5mer-1167 (KESWK)	12
5mer-1158 (KYNPR)	23
5mer-1160 (KETWR)	14

— patent US20250011363A1, “OPTIMIZED SHORTENED PEPTIDE THAT BINDS TO ACETYLCHOLINE RECEPTOR, AND USE THEREOF” (SKINMED CO., LTD., priority 2021, published 2025)
